The text below walks through data of PMC3897377, “Utilizing Nanobody Technology to Target Non-Immunodominant Domains of VAR2CSA” (PLoS ONE, 2014).

Changes are numbered by the printed parent chain.

Sequences and labels used below:
B1: Nb01 (VHH)
VHH: QVQLQESGGGLVQAGGSLRLSCAASGRTFNSYVMGWFRQAPGKEREFVAAISWSGGNAYYADSVKGRFTISRDNAENTVYLLMNSLKPEDTAVYYCAAALTRLARNEYDYLGQGTQVTVSS
notes: from an alpaca immunized with full-length VAR2CSA; pHEN6c vector; also called Nanobody 01; VHH; source: E. coli WK6, periplasmic extract, purified (HisTrap); not shown: His6, C-terminal, kept
B2: Nb10 (VHH)
VHH: QVQLQESGGGLVQAGGSLRLSCAASGRTFSSNLMGWLRQAPGKEREFVAAMSMSGGDTFYADSVKGRFTISRDNAKNMVHLQMNSLKPEDTAIYYCAAADVRLSAYEYDYWGQGTQVTVSS
notes: from an alpaca immunized with full-length VAR2CSA; pHEN6c vector; also called Nanobody 10; VHH; source: E. coli WK6, periplasmic extract, purified (HisTrap); not shown: His6, C-terminal, kept
B3: Nb12 (VHH)
VHH: QVQLQESGGGLVQVGGSLRLSCAASGRTFSNYAMGWFRQAPGEEREFVAAISWSDNNTLYTDSVKGRFTISRDNAENTVYLQMNSLEPEDTAVYYCAAGRRPRLRVGLNEFDYWGQGTQVTVSS
notes: from an alpaca immunized with full-length VAR2CSA; pHEN6c vector; also called Nanobody 12; VHH; source: E. coli WK6, periplasmic extract, purified (HisTrap); not shown: His6, C-terminal, kept
B4: Nb07 (VHH)
VHH: QVQLQESGGGLVQAGGSLRLSCAASGFTFDDYVIGWFRQAPGKEREGVSCISRSDGSTYYADSVKGRFTISSDNAKNTIYLQMNSLKPEDTAVYHCAAAMTHFGLGPGPNEYDYWGQGTQVTVSS
notes: from an alpaca immunized with full-length VAR2CSA; pHEN6c vector; also called Nanobody 07; VHH; source: E. coli WK6, periplasmic extract, purified (HisTrap); not shown: His6, C-terminal, kept
B5: Nb14 (VHH)
VHH: QVQLQESGGGLVQAGGSLRLSCAASGFTLDDYGIGWFRQAPGKEHEGVSSISSGDGSTYYADSVKGRFTISSDNAKNTVYLQNSLKPEDTAVYYCAAGGLHRPLTIATTRGYGIDYWGKGTQVTVSS
notes: from an alpaca immunized with full-length VAR2CSA; pHEN6c vector; also called Nanobody 14; VHH; source: E. coli WK6, periplasmic extract, purified (HisTrap); not shown: His6, C-terminal, kept
B6: Nb06 (VHH)
VHH: QVQLQESGGGLVQAGGSLRLSCAASGFTFDDYAIGWFRQAPGKEREGVSCISSSDGVTYYVDSVKGRFTISSDNAKNTVYLQMNSLKPEDTAVYHCAASPDYYCDAGFLNYGIDYWGEGTQVTVSS
notes: from an alpaca immunized with full-length VAR2CSA; pHEN6c vector; also called Nanobody 06; VHH; source: E. coli WK6, periplasmic extract, purified (HisTrap); not shown: His6, C-terminal, kept
B7: Nb05 (VHH)
VHH: QVQLQESGGGLVQPRGSLRLSCTASERDFGLVVMGWHRQAPGKQRELVAQIGTGGRTNYADSVKGRFTISIDAAKNTVYLQMNNLKPEDTAVYYCNAPLSGIWGQGTQVTVSS
notes: from an alpaca immunized with full-length VAR2CSA; pHEN6c vector; also called Nanobody 05; VHH; source: E. coli WK6, periplasmic extract, purified (HisTrap); not shown: His6, C-terminal, kept
B8: Nb03 (VHH)
VHH: QVQLQESGGGLVQAGGSLRLSCVVSGHTFSGYVMGWFRQAPGKEREFVSSISGYGGITDYADSVKGRFTMSRDNAKNTVYLRMNSLKPEDTAVYYCAVRRSGSSREYDYWGQGTQVTVSS
notes: from an alpaca immunized with full-length VAR2CSA; pHEN6c vector; also called Nanobody 03; VHH; source: E. coli WK6, periplasmic extract, purified (HisTrap); not shown: His6, C-terminal, kept
B9: Nb17 (VHH)
VHH: QVQLQESGGGLVQPGGSLRLSCAASGFTFSGSASWVRQAPGKELEWVSSISGFGGITDYADSVKGRFTISRDNSKNTLYLQNSLKPEDTAVYYCAKGRTGWTSSFLRGQGTQVTVSS
notes: from an alpaca immunized with full-length VAR2CSA; pHEN6c vector; also called Nanobody 17; VHH; source: E. coli WK6, periplasmic extract, purified (HisTrap); not shown: His6, C-terminal, kept
B10: Nb16 (VHH)
VHH: QVQLQESGGGLVQPGGSLRLSCVASGFTFSSVGSWVRQAPGKGLEWVSAISSFSGLRSYADSVKGRFTISRDNAKNTLYLENSLKPEDTAVYYCAKGTVRVGPWLRGQGTQVTVSS
notes: from an alpaca immunized with full-length VAR2CSA; pHEN6c vector; also called Nanobody 16; VHH; source: E. coli WK6, periplasmic extract, purified (HisTrap); not shown: His6, C-terminal, kept
B11: Nb11 (VHH)
VHH: QVQLQESGGGLVQAGGSLRLSCAASGRTFSSYAMGWFRQAPGREREFVALISWSGGSTTYADSVKGRFTISRDNAQNTVYLQMNSLKPEDTAVYYCTAAGSFEGEYDYWGQGTQVTVSS
notes: from an alpaca immunized with full-length VAR2CSA; pHEN6c vector; also called Nanobody 11; VHH; source: E. coli WK6, periplasmic extract, purified (HisTrap); not shown: His6, C-terminal, kept
B12: Nb02 (VHH)
VHH: B11 VHH with R43K, L50F, T59S, Q76K, T97V, A99S
notes: from an alpaca immunized with full-length VAR2CSA; pHEN6c vector; also called Nanobody 02; VHH; source: E. coli WK6, periplasmic extract, purified (HisTrap); not shown: His6, C-terminal, kept
B13: Nb13 (VHH)
VHH: QVQLQESGGGLVQPGGSLRLSCAFSGRTSRNYAMAWFRQAPGKEREFVAATSWNGDITPYGVVVKGRFTISRDNAKSTVYLKMNDLKPEDTAVYYCAAEPRFAPPVVAHEYDYWGRGTQVTVSS
notes: from an alpaca immunized with full-length VAR2CSA; pHEN6c vector; also called Nanobody 13; VHH; source: E. coli WK6, periplasmic extract, purified (HisTrap); not shown: His6, C-terminal, kept

The target in one assay is T1, DBL1-ID2a protein of VAR2CSA (containing minimal CSA-binding region), baculovirus-produced (Plasmodium falciparum FCR3 (assumed for …, UniProt Q6UDW7, strain)).
T1 construct: DBL1-ID2a; source: baculovirus-produced
In words: far-Western, overlay or dot blot; Western blot: recombinant VAR2CSA domain (0,4 µg/lane) run NON-REDUCED on SDS gel, blotted to nitrocellulose, probed with 50 nM Nb in TBST; rabbit anti-camel and HRP anti-rabbit. Conditions: both partners purified. On the technique in general: In western blotting, separated proteins are transferred to a membrane and probed.
On to B1, for which the binding result is “binds”.
Consider B2, for which the binding result is “binds”.
As for B3, the binding result is given as “binds”.
With B4, the binding result was “binds”.

In a further assay the target is T2, VAR2CSA DBL3 domain, baculovirus-produced (Plasmodium falciparum FCR3 (implied), UniProt Q6UDW7, strain).
T2 construct: DBL3 domain; also called DBL3X; source: baculovirus expression system, as described in [11], [20]
Put plainly: ELISA; recombinant VAR2CSA protein or domain (50 nM in PBS) coated on MaxiSorp plates overnight at 4°C; Nb 50 nM in 1% skim milk in PBS, 90 min RT; detected with rabbit anti-camel and HRP anti-rabbit, OD 490 nm after 20 min. Conditions: both partners purified. For orientation: An ELISA detects its analyte on a solid surface through an enzyme-linked reagent.
Take B1: the binding result is “no binding (tested: 50 nM)”.
B5: the binding result is listed as “no binding (tested: 50 nM)”.
Consider B2, for which the binding result is given as “no binding (tested: 50 nM)”.
Still for that read-out and setting: next, B6: “no binding (tested: 50 nM)”.
With B7, the binding result was “no binding (tested: 50 nM)”.
For B8, the binding result was “no binding (tested: 50 nM)”.
Consider B9, for which the binding result is “no binding (tested: 50 nM)”.
On the same count and under the same terms, next, B3: “no binding (tested: 50 nM)”; B10: “no binding (tested: 50 nM)”.
On to B11, for which the binding result is given as “no binding (tested: 50 nM)”.
The same measure, in the same setting: next, B12: “no binding (tested: 50 nM)”; B13: “no binding (tested: 50 nM)”.
Still for that read-out and setting: next, B4: “no binding (tested: 50 nM)”.

The next assay deals with T3, VAR2CSA DBL6 domain, baculovirus-produced (Plasmodium falciparum FCR3, UniProt Q6UDW7, strain).
T3 construct: DBL6 domain; also called DBL6ε; source: baculovirus expression system, as described in [11], [20]
The description is as above. Conditions: both partners purified.
As for B1, the binding result is “no binding (tested: 50 nM)”.
Regarding B2, the binding result was “no binding (tested: 50 nM)”.
B3: the binding result is listed as “no binding (tested: 50 nM)”.
Take B4: the binding result is given as “no binding (tested: 50 nM)”.

For a further assay, the target named is T4, ID1–ID2a minimal CSA-binding region of VAR2CSA, produced in E. coli (Plasmodium falciparum FCR3, UniProt Q6UDW7, strain).
T4 construct: ID1–ID2a region; also called ID1–ID2a (coli); source: E. coli
Described as above. Conditions: both partners purified.
Take B1: the binding result is “binds”.
With B2, the binding result is reported as “binds”.
The same measure, in the same setting: next, B3: “binds”; B4: “binds”.

In a further assay the target is T5, ID1–ID2a minimal CSA-binding region of VAR2CSA, produced in Schneider 2 (S2) cells (Plasmodium falciparum FCR3, UniProt Q6UDW7, strain).
T5 construct: ID1–ID2a region; also called ID1–ID2a (S2); source: Schneider 2 (S2) cells
The description is as above. Conditions: both partners purified.
Regarding B1, the binding result is recorded as “binds”.
Still for that read-out and setting: next, B2: “binds”; B3: “binds”.
Take B4: the binding result is “binds”.

Another assay concerns the target T6, full-length VAR2CSA (FV2) recombinant protein, FCR3 (Plasmodium falciparum FCR3, UniProt Q6UDW7, strain).
T6 construct: VAR2CSA (PfEMP1 family), Plasmodium falciparum strain FCR3, full-length recombinant protein; also called FV2-FCR3; source: recombinant, purified, expressed as described in [33]
The assay is described as above. The settings on record: both partners purified.
With B1, the binding result is reported as “binds”.
The same measure, in the same setting: next, B5: “binds”.
With B2, the binding result is recorded as “binds”.
On to B6, for which the binding result is “binds”.
Consider B7, for which the binding result is “binds”.
For B8, the binding result is reported as “binds”.
Turning to B9, the binding result is “binds”.
In the case of B3, the binding result is listed as “binds”.
As for B10, the binding result is “binds”.
As for B11, the binding result was “binds”.
For B12, the binding result is recorded as “binds”.
In the case of B13, the binding result is reported as “binds”.
For the molecule B4, the binding result is “binds”.

Another assay has as its target T7, ID1–ID2a minimal CSA-binding region of VAR2CSA, baculovirus-produced (Plasmodium falciparum FCR3, UniProt Q6UDW7, strain).
T7 construct: VAR2CSA, P. falciparum FCR3; ID1–ID2a region encompassing DBL2X with the flanking parts ID1 and ID2; also called ID1–ID2a (BV); source: baculovirus expression system, as described in [11], [20]
The assay is described as above. The settings on record: both partners purified.
Turning to B1, the binding result is “binds”.
Same read-out and setting: next, B2: “binds”.
B3: the binding result is given as “binds”.
For the molecule B4, the binding result was “binds”.

Another assay has as its target T3, VAR2CSA DBL6 domain, …. The assay is described as above. The settings on record: both partners purified. This is another data set of the same source.
Consider B6, for which the binding result is on record as “binds”.

A further assay has as its target T8, native VAR2CSA on the surface of NF54 infected erythrocytes (Plasmodium falciparum NF54 (VAR2CSA …, UniProt Q8I639, strain)).
T8 construct: VAR2CSA of the P. falciparum parasite line NF54, native protein on infected erythrocytes; also called VAR2CSA-expressing IE (NF54); source: endogenous, on P. falciparum NF54-infected erythrocytes
Put plainly: flow cytometry on cells; late stage VAR2CSA-expressing IE (FCR3, 7201, NF54) incubated with Nb (0,1 mg/ml), 30 min at 4°C; detected with mouse anti-penta-His and FITC anti-mouse; specific recognition defined by an MFI ratio >1.2. Conditions: one partner purified. Background: In flow cytometry, cells or beads pass a laser one at a time.
For the molecule B1, the binding result was “binds”.
Regarding B5, the binding result is “binds”.
B2: the binding result was “binds”.
Consider B7, for which the binding result is given as “binds”.
As to B8, the binding result was “binds”.
As for B9, the binding result is “binds”.
Same read-out and setting: next, B3: “binds”; B10: “binds”; B11: “binds”.
In the case of B12, the binding result is “binds”.
Turning to B4, the binding result is “binds”.
